Substitutions are numbered along the chain they refer to. Numbers in names are those of the source.
Key:
[1] = biological target: T1, biotinylated monomeric human OX40 antigen Fc(kih) fusion molecule (human, UniProt P0DOX5 223-449 = IgG part, biotinylated at the C-terminal Avi tag (BirA)); assay: ELISA, biotinylated human OX40 on neutravidin plates, Fab supernatants, anti-Flag/HRP
T1 construct: also called biotinylated human OX40; hu OX40
Method: Selections were carried out over 3 or 4 rounds using constant antigen concentrations of 100 nM. […] In rounds 2 and 4, in order to avoid enrichment of binders to neutravidin, capture of antigen: phage complexes was performed by addition of 5.4×10⁷ streptavidin-coated magnetic beads. […] Fab-containing bacterial supernatants were added and binding Fabs were detected via their Flag-tags using an anti-Flag/HRP secondary antibody. […] They were bacterially expressed in a 0.5 liter culture volume, affinity purified and further characterized by SPR-analysis using BioRad's ProteOn XPR36 biosensor.

[2] = biological target: T2, murine FAP (murine, UniProt P97321 1-761); assay: flow cytometry on CT26muFAP cells, which stably express murine FAP
T2 construct: whole, on cells; CT26muFAP served as the muEpCAM-negative specificity control cell line; also called muFAP; CT26muFAP cells
T2 sequence (looked up): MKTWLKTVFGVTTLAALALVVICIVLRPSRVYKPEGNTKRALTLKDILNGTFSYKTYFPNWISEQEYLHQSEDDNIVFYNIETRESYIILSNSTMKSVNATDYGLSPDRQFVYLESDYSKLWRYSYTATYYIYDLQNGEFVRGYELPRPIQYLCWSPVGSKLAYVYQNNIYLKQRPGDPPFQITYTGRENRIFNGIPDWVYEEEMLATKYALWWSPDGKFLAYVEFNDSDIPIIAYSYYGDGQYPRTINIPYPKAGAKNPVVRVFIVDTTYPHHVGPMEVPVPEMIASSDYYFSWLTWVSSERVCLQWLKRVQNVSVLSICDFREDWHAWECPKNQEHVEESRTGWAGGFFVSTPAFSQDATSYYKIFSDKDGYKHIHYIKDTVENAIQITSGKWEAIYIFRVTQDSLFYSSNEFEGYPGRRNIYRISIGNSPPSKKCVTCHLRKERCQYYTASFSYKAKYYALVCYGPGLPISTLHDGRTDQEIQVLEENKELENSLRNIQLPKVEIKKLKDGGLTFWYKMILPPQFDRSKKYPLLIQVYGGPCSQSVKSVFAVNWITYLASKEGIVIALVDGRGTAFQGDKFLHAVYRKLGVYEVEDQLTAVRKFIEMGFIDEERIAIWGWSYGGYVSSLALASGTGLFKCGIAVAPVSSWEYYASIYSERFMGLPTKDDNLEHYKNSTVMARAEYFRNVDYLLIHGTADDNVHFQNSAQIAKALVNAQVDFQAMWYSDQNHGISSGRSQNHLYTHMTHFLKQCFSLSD
Method: (§1) The binding to cell surface murine EpCAM was analysed using mouse EpCAM-positive CT26muEpCAM c125 cells, which stably expresses murine EpCAM. The specificity of binding was analysed by determination of binding to muEpCAM-negative cell line CT26muFAP, which stably expresses murine FAP.
(§2) For analysis of binding of the antigen binding molecules, 0.5×10⁵ CT26muEpCAM or 0.5×10⁵ CT26muFAP cells were added to wells of round-bottomed suspension cell 96-well plates (greiner bio-one, cellstar, Cat. No. 650185). For discrimination of live and dead cells, samples were stained with Zombie Aqua Viability Dye (Biolegend, Cat. No 423102) in PBS for 10 minutes at room temperature. Cells were then washed once with FACS buffer and subsequently stained for 90 minutes at 4° C. in the dark in 50 μL/well 4° C.
(§3) Plates were finally resuspended in 85 μL/well FACS-buffer and acquired the same day using 4-laser LSR-II cytometer (BD Bioscience with DIVA software).

[3] = biological target: T3, murine EpCAM (murine, UniProt Q99JW5 24-315); assay: flow cytometry, muEpCAM+ CT26muEpCAM cells
T3 construct: Stably expressed on CT26muEpCAM cl25 cells; also called muEpCAM; CT26muEpCAM cells
T3 sequence: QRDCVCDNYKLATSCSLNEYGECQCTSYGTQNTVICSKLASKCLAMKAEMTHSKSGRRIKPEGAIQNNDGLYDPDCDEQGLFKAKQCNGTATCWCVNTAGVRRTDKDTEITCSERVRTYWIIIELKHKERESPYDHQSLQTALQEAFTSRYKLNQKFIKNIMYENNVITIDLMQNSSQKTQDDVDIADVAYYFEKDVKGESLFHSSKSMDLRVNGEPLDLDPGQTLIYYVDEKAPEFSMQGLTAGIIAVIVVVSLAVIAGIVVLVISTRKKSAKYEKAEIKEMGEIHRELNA
Method: as §1, §2, §3

[4] = biological target: T4, human OX40 (human, UniProt P43489 29-277); assay: flow cytometry, activated human OX40+ CD8+ T cells
T4 construct: Recombinant on HeLa reporter cells in the NFkB assay; also called huOX40; CD134
T4 sequence: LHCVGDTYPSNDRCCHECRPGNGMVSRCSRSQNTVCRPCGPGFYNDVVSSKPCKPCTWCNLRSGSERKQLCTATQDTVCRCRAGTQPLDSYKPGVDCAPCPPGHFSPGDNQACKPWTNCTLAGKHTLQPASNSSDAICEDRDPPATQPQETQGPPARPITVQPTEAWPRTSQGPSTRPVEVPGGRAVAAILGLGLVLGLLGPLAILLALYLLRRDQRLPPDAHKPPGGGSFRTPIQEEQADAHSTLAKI
Method: (§4) For discrimination of live and dead cells, samples were stained with Zombie Aqua Viability Dye (Biolegend, Cat. No. 423102) in DPBS for 10 minutes at room temperature. […] After three washes with excess FACS buffer, cells were stained for 30 minutes at 4° C. in the dark in 25 μL/well 4° C. FACS buffer containing a mixture of fluorescently labeled anti-human CD4 (clone RPA-T4, mouse IgG1 k, BioLegend, Cat. No. 300532), anti-human CD8 (clone RPa-T8, mouse IgG1k, BioLegend, Cat.-No. 3010441) and Fluorescein isothiocyanate (FITC)-conjugated AffiniPure anti-human IgG Fcγ-fragment-specific goat IgG F(ab′)2 fragment (Jackson ImmunoResearch, Cat. No. 109 096 098).

[5] = biological target: T4, human OX40; assay: flow cytometry, activated human OX40+ CD4+ T cells
Method: as §4

[6] = biological target: T5, human EpCAM (human, UniProt P16422 24-314); assay: flow cytometry, huEpCAM+ KATO-III cells
T5 construct: Endogenous on KATO-III cells and stably expressed on NIH/3T3huEpCAM clone 44 cells; also called huEpCAM; KATO-III cells
T5 sequence: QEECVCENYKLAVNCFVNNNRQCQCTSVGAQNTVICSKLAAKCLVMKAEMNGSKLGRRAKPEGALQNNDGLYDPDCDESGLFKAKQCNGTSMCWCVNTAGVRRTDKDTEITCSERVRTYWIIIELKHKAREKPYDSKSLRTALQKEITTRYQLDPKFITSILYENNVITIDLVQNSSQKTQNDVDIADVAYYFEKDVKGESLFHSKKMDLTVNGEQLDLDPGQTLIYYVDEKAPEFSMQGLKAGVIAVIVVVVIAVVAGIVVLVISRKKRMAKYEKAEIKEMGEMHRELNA
Method: For discrimination of live and dead cells, samples were stained with Zombie Aqua Viability Dye (Biolegend, Cat. No 423102) in PBS for 10 minutes at room temperature. Cells were then washed once with FACS buffer and subsequently stained for 90 minutes at 4° C. in the dark in 50 μL/well 4° C.

B1: anti-OX40 clone 1G4 (phage-derived Fab) (Fab, V domains shown)
VH: QVQLVQSGAEVKKPGSSVKVSCKASGGTFSSYAISWVRQAPGQGLEWMGGIIPIFGTANYAQKFQGRVTITADKSTSTAYMELSSLRSEDTAVYYCAREYGSMDYWGQGTTVTVSS
VL: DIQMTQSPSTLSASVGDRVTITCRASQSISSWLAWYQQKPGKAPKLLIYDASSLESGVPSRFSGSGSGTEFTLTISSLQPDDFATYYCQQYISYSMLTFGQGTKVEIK
notes: Tested as a Flag-tagged Fab in bacterial supernatant (DP88-4 library); also called OX40 (1G4)
binding result [1]: binds

B2: monospecific, bivalent anti-murine EpCAM IgG (parental bivalent anti-muEpCAM antibody) (antibody, V domains shown)
VH: EVQLAESGGGLVQPGRSMKLSCAASGFTFSNFPMAWVRQAPTKGLEWVATISTSGGSTYYRDSVKGRFTISRDNAKSTLYLQMNSLRSEDTATYYCTRTLYILRVFYFDYWGQGVMVTVSS
VL: DIQMTQSPASLSASLGETVSIECLASEGISNDLAWYQQKSGKSPQLLIYATSRLQDGVPSRFSGSGSGTRYSLKISGMQPEDEADYFCQQSYKYPWTFGGGTKLELK
notes: it was detected with anti-mouse IgG Fc; also called muEpCAM IgG; G8.8
binding result [2]: no binding
EC50 [3]: 2.87 nM

B3: anti-OX40 clone 20B7 (phage-derived Fab) (Fab, V domains shown)
VH: QVQLVQSGAEVKKPGSSVKVSCKASGGTFSSYAISWVRQAPGQGLEWMGGIIPIFGTANYAQKFQGRVTITADKSTSTAYMELSSLRSEDTAVYYCARVNYPYSYWGDFDYWGQGTTVTVSS
VL: DIQMTQSPSTLSASVGDRVTITCRASQSISSWLAWYQQKPGKAPKLLIYDASSLESGVPSRFSGSGSGTEFTLTISSLQPDDFATYYCQQYQAFSLTFGQGTKVEIK
notes: Tested as a Flag-tagged Fab in bacterial supernatant (DP88-4 library); also called OX40 (20B7)
binding result [1]: binds

B4: anti-OX40 clone 49B4 (phage-derived Fab) (Fab, V domains shown)
VH: QVQLVQSGAEVKKPGSSVKVSCKASGGTFSSYAISWVRQAPGQGLEWMGGIIPIFGTANYAQKFQGRVTITADKSTSTAYMELSSLRSEDTAVYYCAREYYRGPYDYWGQGTTVTVSS
VL: B3 VL with Q92S, A93S, F94Q, S95P, L96Y
notes: Tested as a Flag-tagged Fab in bacterial supernatant (DP88-4 library); also called OX40 (49B4)
binding result [1]: binds

B5: bispecific, tetravalent anti-human OX40, bivalent anti-human EpCAM 4+2 molecule (OX40 49B4/EpCAM 3-17I P329GLALA 4+2) (bispecific antibody, human IgG1, kappa, L234A L235A)
heavy: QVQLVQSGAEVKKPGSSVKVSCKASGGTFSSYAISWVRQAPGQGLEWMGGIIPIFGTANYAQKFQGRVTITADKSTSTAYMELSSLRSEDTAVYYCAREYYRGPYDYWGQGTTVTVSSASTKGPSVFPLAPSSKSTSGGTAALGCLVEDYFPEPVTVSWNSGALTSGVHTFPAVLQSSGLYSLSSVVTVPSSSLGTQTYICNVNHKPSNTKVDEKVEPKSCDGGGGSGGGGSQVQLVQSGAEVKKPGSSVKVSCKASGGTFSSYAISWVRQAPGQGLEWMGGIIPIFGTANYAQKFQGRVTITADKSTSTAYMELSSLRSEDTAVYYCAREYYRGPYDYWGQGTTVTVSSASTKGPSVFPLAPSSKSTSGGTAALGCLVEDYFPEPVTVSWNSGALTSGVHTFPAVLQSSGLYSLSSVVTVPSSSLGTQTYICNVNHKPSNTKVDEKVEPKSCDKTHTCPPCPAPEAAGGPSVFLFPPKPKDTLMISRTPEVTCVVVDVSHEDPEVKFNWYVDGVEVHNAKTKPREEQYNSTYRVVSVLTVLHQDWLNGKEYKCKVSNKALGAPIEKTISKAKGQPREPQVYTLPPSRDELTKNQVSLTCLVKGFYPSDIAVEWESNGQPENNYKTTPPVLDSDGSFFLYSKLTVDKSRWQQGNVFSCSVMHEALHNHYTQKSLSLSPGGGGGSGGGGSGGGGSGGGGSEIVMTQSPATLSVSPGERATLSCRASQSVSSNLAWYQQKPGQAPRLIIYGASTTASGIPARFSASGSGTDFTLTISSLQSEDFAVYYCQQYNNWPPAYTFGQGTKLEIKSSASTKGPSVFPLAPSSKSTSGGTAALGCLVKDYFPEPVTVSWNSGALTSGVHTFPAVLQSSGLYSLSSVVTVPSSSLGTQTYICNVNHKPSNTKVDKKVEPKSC
light 1: DIQMTQSPSTLSASVGDRVTITCRASQSISSWLAWYQQKPGKAPKLLIYDASSLESGVPSRFSGSGSGTEFTLTISSLQPDDFATYYCQQYSSQPYTFGQGTKVEIKRTVAAPSVFIFPPSDRKLKSGTASVVCLLNNFYPREAKVQWKVDNALQSGNSQESVTEQDSKDSTYSLSSTLTLSKADYEKHKVYACEVTHQGLSSPVTKSFNRGEC
light 2: QVQLVQSGAEVKKPGSSVKVSCKASGGTFSSYAISWVRQAPGQGLEWMGGIIPIFGTANYAQKFQGRVTITADESTSTAYMELSSLRSEDTAVYYCARGLLWNYWGQGTLVTVSSASVAAPSVFIFPPSDEQLKSGTASVVCLLNNFYPREAKVQWKVDNALQSGNSQESVTEQDSKDSTYSLSSTLTLSKADYEKHKVYACEVTHQGLSSPVTKSFNRGEC
notes: huIgG1 P329G LALA, no knob-into-hole; also called 4+2 huEpCAM; 4 + 2 anti-huOX40, anti-huEpCAM
EC50 [4]: 0.04 nM
EC50 [5]: 0.01 nM

B6: monospecific, bivalent anti-human EpCAM IgG (parental bivalent anti-human EpCAM antibody, clone 3-17I, Affitech) (antibody, V domains shown)
VH: QVQLVQSGAEVKKPGSSVKVSCKASGGTFSSYAISWVRQAPGQGLEWMGGIIPIFGTANYAQKFQGRVTITADESTSTAYMELSSLRSEDTAVYYCARGLLWNYWGQGTLVTVSS
VL: EIVMTQSPATLSVSPGERATLSCRASQSVSSNLAWYQQKPGQAPRLIIYGASTTASGIPARFSASGSGTDFTLTISSLQSEDFAVYYCQQYNNWPPAYTFGQGTKLEIK
notes: IgG; it was detected with an anti-human IgG secondary; also called huEpCAM IgG; 3-171
EC50 [6]: 3.11 nM

B7: anti-OX40 clone 17A9 (phage-derived Fab) (Fab, V domains shown)
VH: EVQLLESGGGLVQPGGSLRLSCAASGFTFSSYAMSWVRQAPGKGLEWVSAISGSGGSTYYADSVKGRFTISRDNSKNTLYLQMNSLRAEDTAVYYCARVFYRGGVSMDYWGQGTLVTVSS
VL: SSELTQDPAVSVALGQTVRITCQGDSLRSYYASWYQQKPGQAPVLVIYGKNNRPSGIPDRFSGSSSGNTASLTITGAQAEDEADYYCNSRVMPHNRVFGGGTKLTV
notes: Tested as a Flag-tagged Fab in bacterial supernatant (lambda-DP47 library); also called OX40 (17A9)
binding result [1]: binds
